Here are results for one molecule from US20260184785A1 (CYTOCARES SHANGHAI, published 2026).

For the assay, the target named is T1, trispecific antibody LMOAME.
T1 construct: Trispecific single-chain tandem scFv, monomer of 83.8 kDa without Fc; also called CD19×CD3×CD28 antibody; LMOAME DP
As to the kind of experiment: ELISA, antigen-Fc coated on the plate, detection with HRP-protein L. In general terms: An ELISA detects its analyte on a solid surface through an enzyme-linked reagent.

Experimental: Recombinant human CD19 antigen (CD19 (C-Fc), Novoprotein, Cat #: C572), and CD28 antigen (CD28 (C-Fc), Novoprotein, Cat #: C81) were diluted to 2 μg/mL with a protein coating solution, and plates were coated with the dilutions of 100 μL per well overnight at 2-8° C. The plates were washed the next day and blocked with a blocking solution of 1% Casein+3% BSA (PBS+2% BSA (V/W)).
The diluted antibodies were added to the 96-well flat bottom plates coated with antigens respectively and incubated for 1 h at 37° C.

B1: Recombinant human CD19 antigen (CD19 (C-Fc), Novoprotein, Cat #: C572) (Fc fusion, UniProt P15391 20-291, looked up)
chain: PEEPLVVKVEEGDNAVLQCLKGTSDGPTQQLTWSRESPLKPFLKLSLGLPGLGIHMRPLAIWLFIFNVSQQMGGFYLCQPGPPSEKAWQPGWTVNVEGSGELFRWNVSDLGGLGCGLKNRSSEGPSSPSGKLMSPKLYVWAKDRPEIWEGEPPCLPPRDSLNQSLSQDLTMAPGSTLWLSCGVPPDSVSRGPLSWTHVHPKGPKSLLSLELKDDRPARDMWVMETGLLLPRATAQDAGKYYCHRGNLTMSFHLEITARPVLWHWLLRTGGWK
notes: Bought C-terminal Fc fusion; also called rhCD19; hCD19 antigen; not shown: C-terminal Fc tag of the bought protein
As for B1, the binding result was “binds”.
